Paper doi:10.1101/2025.04.28.650843
Where “and” joins values, the source holds several entries; their conditions need not be identical. Equal entries are not always repeated.

Molecular target: allophycocyanin (AP) (Synechococcus elongatus PCC 7942)
Test: cryo-EM structure

stoichiometry N: 3 and 6
Substance: allophycocyanin (AP) (complex)
